In US20240116985A1, “STAPLED PEPTIDES AND METHODS THEREOF” (priority 2020, published 2024) one finds IC50 and EC50 data, which are given here for 13 molecules.

Starred links: 1 amine or outer side, 2 acyl side, 3 side chain; linkers in the order of their positions; H or OH if unused. Positions of bridges follow the written chain, without caps; N, C: chain ends. Non-standard residues stand in square brackets, D forms with d. Primed or numbered codes have the meaning given here. PyrS2″ = (S)-3-amino-1-((pent-4-en-1-yloxy)carbonyl)pyrrolidine-3-carboxylic acid (stapling residue), C=CCCCOC(=O)N1CC[C@@](N[*:1])(C(=O)[*:2])C1; B5(24) = 2-amino-2-(pent-4-en-1-yl)hept-6-enoic acid, 2,2-bis(4-pentenyl)glycine (stitching residue), C=CCCCC(CCCC=C)(N[*:1])C(=O)[*:2]; B5(4) = 2,2-bis(4-pentenyl)glycine = 2-amino-2-(pent-4-en-1-yl)hept-6-enoic acid (stitching residue), C=CCCCC(CCCC=C)(N[*:1])C(=O)[*:2]; B5(5) = 2,2-bis(4-pentenyl)glycine, 2-amino-2-(pent-4-en-1-yl)hept-6-enoic acid (stitching residue), C=CCCCC(CCCC=C)(N[*:1])C(=O)[*:2]; TfeGA = (S)-2-amino-3-((carboxymethyl)(2,2,2-trifluoroethyl)amino)propanoic acid, O=C([C@H](CN(CC(=O)[*:3])CC(F)(F)F)N[*:1])[*:2]; PyrS2 = (S)-3-amino-1-((pent-4-en-1-yloxy)carbonyl)pyrrolidine-3-carboxylic acid, C=CCCCOC(=O)N1CC[C@@](N[*:1])(C(=O)[*:2])C1; B5 = 2-amino-2-(pent-4-en-1-yl)hept-6-enoic acid, C=CCCCC(CCCC=C)(N[*:1])C(=O)[*:2]; Phe(3-COOH) = N[C@@H](Cc1cccc(C(=O)O)c1)C(=O)O; Phe(2-Cl) = N[C@@H](Cc1ccccc1Cl)C(=O)O; Bta = N[C@@H](Cc1csc2ccccc12)C(=O)O; αAllylPro = C=CC[C@@]1(C(=O)O)CCCN1; tBuAla = CC(C)(C)C[C@H](N)C(=O)O; 3Thi = N[C@@H](Cc1ccsc1)C(=O)O; Cha = N[C@@H](CC1CCCCC1)C(=O)O; hSer = N[C@@H](CCO)C(=O)O; Nle = CCCC[C@H](N)C(=O)O

B1: I-2016 (peptide)
peptide: Ac-[αAllylPro]D[tBuAla][B5(4)]NTAAYN[PyrS2″][3Thi][Bta]Q-NH2
modifications: staple 1-4, 4-11; not fully specified; printed as Ac-PL3-Asp-Npg-B5-Asn-Thr-Ala-Ala-Tyr-Asn-PyrS2-3Thi-BztA-Gln-NH2
B2: I-2015 (peptide)
peptide: Ac-[αAllylPro]D[tBuAla][B5(4)]NTAAYN[PyrS2″][3Thi][Bta]Q-NH2
modifications: staple 1-4, 4-11; not fully specified; printed as Ac-PL3-Asp-Npg-B5-Asn-Thr-Ala-Ala-Tyr-Asn-PyrS2-3Thi-BztA-Gln-NH2

One assay deals with full-length beta-Catenin (Uniprot ID P35222) (Homo sapiens (Human)) (UniProt P35222). Description: FP competition; full-length beta-catenin + 5FAM-TCF4(10-53) probe.
Target sequence in this assay (P35222 whole entry, one chain of several): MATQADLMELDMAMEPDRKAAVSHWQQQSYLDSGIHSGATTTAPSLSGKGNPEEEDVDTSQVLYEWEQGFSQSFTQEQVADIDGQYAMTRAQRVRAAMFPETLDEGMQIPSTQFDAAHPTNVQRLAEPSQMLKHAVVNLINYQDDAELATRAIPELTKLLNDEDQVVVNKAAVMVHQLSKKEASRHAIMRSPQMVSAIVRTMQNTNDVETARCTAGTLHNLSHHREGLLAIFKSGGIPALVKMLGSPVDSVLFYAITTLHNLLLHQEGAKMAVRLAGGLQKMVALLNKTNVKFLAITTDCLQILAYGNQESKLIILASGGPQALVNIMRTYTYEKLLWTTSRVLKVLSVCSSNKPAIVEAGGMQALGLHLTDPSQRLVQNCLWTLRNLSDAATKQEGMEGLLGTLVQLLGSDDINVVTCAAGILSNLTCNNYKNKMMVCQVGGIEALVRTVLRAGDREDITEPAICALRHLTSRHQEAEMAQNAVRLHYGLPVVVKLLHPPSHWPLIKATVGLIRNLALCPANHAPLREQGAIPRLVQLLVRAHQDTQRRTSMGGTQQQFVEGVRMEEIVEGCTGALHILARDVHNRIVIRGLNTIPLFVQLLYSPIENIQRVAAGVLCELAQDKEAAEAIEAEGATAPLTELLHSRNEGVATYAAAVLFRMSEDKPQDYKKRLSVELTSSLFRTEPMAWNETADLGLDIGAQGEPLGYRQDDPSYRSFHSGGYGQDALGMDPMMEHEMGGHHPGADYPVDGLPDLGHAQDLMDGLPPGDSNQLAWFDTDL
B1: the IC50 is 703 nM.
The same measure, in the same setting: next, Ac-[αAllylPro]D[tBuAla][B5(5)]D[Phe(3-COOH)]AAFA[PyrS2″][Phe(2-Cl)][Bta]F-NH2 (staple 1-4, 4-11) [I-2025]: 109 nM; B2: 522 nM.

The next assay shares this target. Description: fluorescence polarization competition, 5FAM-TCF4 10-53 probe on full-length beta-catenin.
Target sequence in this assay (P35222 2-781 limits assumed): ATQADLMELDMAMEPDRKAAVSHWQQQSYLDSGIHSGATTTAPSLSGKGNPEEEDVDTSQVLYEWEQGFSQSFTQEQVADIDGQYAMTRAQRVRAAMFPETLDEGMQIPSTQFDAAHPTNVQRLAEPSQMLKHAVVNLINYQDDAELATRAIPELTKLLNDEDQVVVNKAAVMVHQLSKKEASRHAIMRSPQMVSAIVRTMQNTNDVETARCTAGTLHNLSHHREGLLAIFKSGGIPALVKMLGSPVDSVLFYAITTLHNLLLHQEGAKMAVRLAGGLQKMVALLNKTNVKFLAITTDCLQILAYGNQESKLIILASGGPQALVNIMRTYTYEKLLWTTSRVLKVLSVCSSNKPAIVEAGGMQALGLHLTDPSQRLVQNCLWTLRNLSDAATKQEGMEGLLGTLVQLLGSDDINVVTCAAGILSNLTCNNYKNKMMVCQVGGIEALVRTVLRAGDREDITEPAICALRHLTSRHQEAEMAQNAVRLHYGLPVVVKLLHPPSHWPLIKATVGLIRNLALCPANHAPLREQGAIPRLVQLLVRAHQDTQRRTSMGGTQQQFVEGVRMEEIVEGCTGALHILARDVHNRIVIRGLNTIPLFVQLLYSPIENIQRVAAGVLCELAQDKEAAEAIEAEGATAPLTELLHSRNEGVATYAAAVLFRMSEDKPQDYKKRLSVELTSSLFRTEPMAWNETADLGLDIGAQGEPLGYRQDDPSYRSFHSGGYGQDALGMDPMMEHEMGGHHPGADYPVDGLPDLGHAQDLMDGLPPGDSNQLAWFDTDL
Molecule Ac-[αAllylPro]D[Cha][B5(4)]DDAAFS[PyrS2″][Phe(2-Cl)][Bta][hSer]-NH2 (staple 1-4, 4-11) [I-1137] yielded an EC50 of 8 nM.
On the same count and under the same terms, the value for Ac-[αAllylPro]D[Cha][B5(4)]DDALFS[PyrS2″][Phe(2-Cl)][Bta]Q-NH2 (staple 1-4, 4-11) [I-1148] was 50 nM.
On the same count and under the same terms, the value for Ac-[αAllylPro]D[Cha][B5(4)]DDLAFS[PyrS2″][Phe(2-Cl)][Bta]Q-NH2 (staple 1-4, 4-11) [I-1147] was 10 nM.
The molecule Ac-[αAllylPro]D[Cha][B5(4)]DDLAFT[PyrS2″][Phe(2-Cl)][Bta]S-NH2 (staple 1-4, 4-11) [I-1150] showed an EC50 of 12 nM.
Still for that read-out and setting: next, Ac-[αAllylPro]D[Cha][B5(4)]DDLLFT[PyrS2″][Phe(2-Cl)][Bta]S-NH2 (staple 1-4, 4-11) [I-1152]: 65 nM; Ac-[αAllylPro]D[Cha][B5(4)]DDAAFL[PyrS2″][Phe(2-Cl)][Bta][dT]-NH2 (staple 1-4, 4-11) [I-1140]: 33 nM; Ac-[αAllylPro]D[Cha][B5(4)]DDAAFS[PyrS2″][Phe(2-Cl)][Bta]L-NH2 (staple 1-4, 4-11) [I-1138]: 18 nM.
Consider Ac-[αAllylPro]D[Cha][B5(4)]DDAAFL[PyrS2″][Phe(2-Cl)][Bta]T-NH2 (staple 1-4, 4-11) [I-1139], for which the EC50 turned out to be 22 nM.
Still for that read-out and setting: the value for Ac-[αAllylPro]D[Cha][B5(4)]DDALFT[PyrS2″][Phe(2-Cl)][Bta]S-NH2 (staple 1-4, 4-11) [I-1151] was 30 nM.

A further assay shares this target. Description: fluorescence polarization competition; competitor 5FAM-TCF4 10-53.
Target sequence in this assay (P35222 whole entry, one chain of several): as the sequence (P35222 whole entry, one chain of several) above
Turning to Ac-[αAllylPro]D[tBuAla][B5]D[TfeGA][Nle]AFT[PyrS2][Phe(2-Cl)][Bta]Q-NH2 (staple 1-4, 4-11) [I-1692], the concentration for half-maximal inhibition (IC50) was found to be 17 nM.

In a further assay the target is Bcat-Halo (UniProt P35222). In words: NanoBRET Abs IC50 in HEK293 cells; competitor TCF4-Luc on Bcat-Halo.
Bcat-Halo, sequence (P35222 whole entry): as the sequence (P35222 whole entry, one chain of several) above
On to Ac-[αAllylPro]D[Cha][B5(4)]DDAAFS[PyrS2″][Phe(2-Cl)][Bta][hSer]-NH2 (staple 1-4, 4-11) [I-1137], for which the IC50 came to 12000 nM.
Same read-out and setting: the value for Ac-[αAllylPro]D[Cha][B5(4)]DDALFS[PyrS2″][Phe(2-Cl)][Bta]Q-NH2 (staple 1-4, 4-11) [I-1148] was 21500 nM; that for Ac-[αAllylPro]D[Cha][B5(4)]DDLAFS[PyrS2″][Phe(2-Cl)][Bta]Q-NH2 (staple 1-4, 4-11) [I-1147] was 21100 nM; that for Ac-[αAllylPro]D[Cha][B5(4)]DDLAFT[PyrS2″][Phe(2-Cl)][Bta]S-NH2 (staple 1-4, 4-11) [I-1150] was 21400 nM.
On the same count and under the same terms, the value for Ac-[αAllylPro]D[Cha][B5(4)]DDLLFT[PyrS2″][Phe(2-Cl)][Bta]S-NH2 (staple 1-4, 4-11) [I-1152] was 14200 nM; that for Ac-[αAllylPro]D[Cha][B5(4)]DDAAFL[PyrS2″][Phe(2-Cl)][Bta][dT]-NH2 (staple 1-4, 4-11) [I-1140] was 32500 nM.
Same read-out and setting: next, Ac-[αAllylPro]D[Cha][B5(4)]DDAAFS[PyrS2″][Phe(2-Cl)][Bta]L-NH2 (staple 1-4, 4-11) [I-1138]: 19800 nM; Ac-[αAllylPro]D[Cha][B5(4)]DDAAFL[PyrS2″][Phe(2-Cl)][Bta]T-NH2 (staple 1-4, 4-11) [I-1139]: 18000 nM; Ac-[αAllylPro]D[Cha][B5(4)]DDALFT[PyrS2″][Phe(2-Cl)][Bta]S-NH2 (staple 1-4, 4-11) [I-1151]: 25300 nM.

The target of the next assay is Bcat-Halo (beta-catenin HaloTag construct expressed in HEK293 cells) (UniProt P35222). Description: NanoBRET target engagement in HEK293 cells, absolute IC50; competitor TCF4-Luc.
Bcat-Halo (beta-catenin HaloTag construct expressed in HEK293 cells), sequence (P35222 whole entry): as the sequence (P35222 whole entry, one chain of several) above
Take Ac-[αAllylPro]D[tBuAla][B5]D[TfeGA][Nle]AFT[PyrS2][Phe(2-Cl)][Bta]Q-NH2 (staple 1-4, 4-11) [I-1692]: the IC50 stood at 10400 nM.

The target of the next assay is full-length beta-Catenin (Uniprot ID P35222) (Homo sapiens (Human)) (UniProt P35222). In words: fluorescence polarization competition vs 5FAM-TCF4(10-53) on full-length beta-catenin.
Target sequence in this assay (P35222 2-781 limits assumed): as the sequence (P35222 2-781 limits assumed) above
For Ac-[αAllylPro]D[Cha][B5(4)]DDAAFS[PyrS2″][Phe(2-Cl)][Bta][hSer]-NH2 (staple 1-4, 4-11) [I-1137], the half-inhibitory concentration (IC50) was found to be 8 nM.
On the same count and under the same terms, the value for Ac-[αAllylPro]D[Cha][B5(4)]DDALFS[PyrS2″][Phe(2-Cl)][Bta]Q-NH2 (staple 1-4, 4-11) [I-1148] was 50 nM; that for Ac-[αAllylPro]D[Cha][B5(4)]DDLAFS[PyrS2″][Phe(2-Cl)][Bta]Q-NH2 (staple 1-4, 4-11) [I-1147] was 10 nM.
Take Ac-[αAllylPro]D[Cha][B5(4)]DDLAFT[PyrS2″][Phe(2-Cl)][Bta]S-NH2 (staple 1-4, 4-11) [I-1150]: the IC50 came to 12 nM.
Regarding Ac-[αAllylPro]D[Cha][B5(4)]DDLLFT[PyrS2″][Phe(2-Cl)][Bta]S-NH2 (staple 1-4, 4-11) [I-1152], the IC50 worked out at 65 nM.
The same measure, in the same setting: next, Ac-[αAllylPro]D[Cha][B5(4)]DDAAFL[PyrS2″][Phe(2-Cl)][Bta][dT]-NH2 (staple 1-4, 4-11) [I-1140]: 33 nM; Ac-[αAllylPro]D[Cha][B5(4)]DDAAFS[PyrS2″][Phe(2-Cl)][Bta]L-NH2 (staple 1-4, 4-11) [I-1138]: 18 nM.
With Ac-[αAllylPro]D[Cha][B5(4)]DDAAFL[PyrS2″][Phe(2-Cl)][Bta]T-NH2 (staple 1-4, 4-11) [I-1139], the IC50 came out at 22 nM.
Same read-out and setting: the value for Ac-[αAllylPro]D[Cha][B5(4)]DDALFT[PyrS2″][Phe(2-Cl)][Bta]S-NH2 (staple 1-4, 4-11) [I-1151] was 30 nM.
